Test results from US20050260212A1 (PDL BIOPHARMA, published 2005).

Biological target: T1, human LFL2-Fc fusion protein (human, UniProt P01857-1 99-330 = IgG part, limits assumed)
T1 construct: domain: constant region of the human gamma 1 immunoglobulin heavy chain; In-frame fusion of the LFL2 extracellular domain with the human gamma 1 constant region; GenBank NP-570843.1 is printed for LFL2/LRRC15
Test: SPR (BIAcore 3000), mAb immobilised on CM5, LFL2-Fc analyte, bivalent analyte model
Procedure: Kinetics measurements between human LFL2-Fc fusion protein and anti-LFL2 mAbs were performed using BIAcore 3000™ (BIAcore™, Sweden). Anti-LFL2 mAbs were immobilized with 100 RUs on Research-grade CM5 sensor chip by the BIAcore amine coupling reagents (N-ethyl-N′-dimethylaminopropylcarbodiimide, EDC; N-hydroxysuccinimide, NHS; and ethanolamine HCl, pH8.5). Assays were run at a flow rate of 30 ul/min at room temperature. Three-minute association phase of each LFL2-Fc was followed by ten-minute injection of running buffer (10 mM Hepes, 300 mM sodium chloride, 3 mM EDTA, 0.05% P-20, pH7.4) to monitor dissociation. The mAb surface was regenerated with 25 mM NaOH. […] Double referencing was applied in each analysis to eliminate background responses from reference surface and buffer only control. The affinity (KD) of binding was obtained by simultaneously fitting the association and dissociation phases of the sensorgram from the analyte concentration series using the bivalent analyte model from BIAevaluate software.

T1 sequence (P01857 other isoform, or with tags, fused parts or gaps limits assumed): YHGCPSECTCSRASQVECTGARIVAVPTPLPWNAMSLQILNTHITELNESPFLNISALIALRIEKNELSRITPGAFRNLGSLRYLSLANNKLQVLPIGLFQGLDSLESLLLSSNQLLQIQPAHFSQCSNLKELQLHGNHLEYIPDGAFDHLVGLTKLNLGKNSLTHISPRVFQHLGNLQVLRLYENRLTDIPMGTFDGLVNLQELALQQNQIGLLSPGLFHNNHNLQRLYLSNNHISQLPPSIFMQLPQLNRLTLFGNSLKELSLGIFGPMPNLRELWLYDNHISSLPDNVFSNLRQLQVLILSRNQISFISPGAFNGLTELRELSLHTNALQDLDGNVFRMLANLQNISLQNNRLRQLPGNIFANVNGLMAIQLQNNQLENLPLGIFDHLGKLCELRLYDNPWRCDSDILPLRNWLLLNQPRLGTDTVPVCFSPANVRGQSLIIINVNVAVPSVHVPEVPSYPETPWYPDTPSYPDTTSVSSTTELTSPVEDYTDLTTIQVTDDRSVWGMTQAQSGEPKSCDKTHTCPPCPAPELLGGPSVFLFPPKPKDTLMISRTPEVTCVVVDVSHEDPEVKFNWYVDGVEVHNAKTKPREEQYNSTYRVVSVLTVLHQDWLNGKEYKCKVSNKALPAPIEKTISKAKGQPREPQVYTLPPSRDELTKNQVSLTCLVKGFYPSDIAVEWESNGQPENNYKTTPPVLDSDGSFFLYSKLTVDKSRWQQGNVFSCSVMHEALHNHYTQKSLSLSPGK

Kd: 1.2 nM
B1: anti-LFL2 mAb M25 (antibody, V domains shown)
VH: QVQLQQSGAELMKPGASVKISCKATGYKFSSYWIEWVKQRPGHGLEWIGEILPGSDTTNYNEKFKDKATFTSDTSSNTAYMQLSSLTSEDSAVYYCARDRGNYRAWFGYWGQGTLVTVS
VL: DIQMTQTSSLSASLGDRVTISCRASQDISNYLNWYQQKPDGTVKFLIYYTSRLHSGVPSRFSGSGSGTDYSLTISYLEPEDIATYFCQQGEALPWTFGGGTKLEIKR
